# Experimental data as given in US20170043014A1 (Novo Nordisk, published 2017).
# Target: Recombinant mouse IL-21 (mouse, UniProt Q9ES17 18-146)
# Assay: capture style ELISA, clone selection
binder,measurement,value
"Mouse surrogate anti-IL-21 antibody (antibody, IgG1, V domains shown, mIgG1/kappa isotype) VH: EVQLVESGGGLVKPGGSLKLSCAASGFTFNRYSMSWVRQSPEKRLEWVAEISVGGSYTQYVDIVTGRFTISRDNAKNTLYLEMSSLRSEDTAMYYCARLYYSGSGDSYYYAMDYWGQGTSVTVSS VL: QTVLIQSPAIMSASPGEKVTMTCSASSSVSYMHWYQQKSGTSPKRWIYDTSKLASGVPARFSGSGSGTSYSLTISSMEAEDAATYYCQQWNSNPPTFGGGTKLEMK",binding result,binds
